The values below come from patent US10544202B2, “Mutant proteins and methods for their production” (Medical Research Council, priority 2013, dated 2020).

Series [1] concerns T-REx-293 cells. Kind of series: Expression level of SERT-mCherry mutants transiently transfected into T-REx-293 cells. Format: cell-based. The conditions noted are these: relative to wild-type SERT = 100%; transient transfection. The protocol:
(FIG. 3A) Comparison of [^125I]-RTI55 bound to 554 detergent-solubilised Ala/Leu mutants at either 4° C. or after heating at 30° C. for 30 minutes. The data relating to thermostability (the heated samples) have been normalized to the amount of wild-type SERT remaining after heating (40%; horizontal dashed line). The expression level of wild-type SERT is indicated by the vertical dashed line and the grey column (0-200 dpm) represents non-specific binding of [^125I]-RTI55 to the parental T-REx-HEK293 cell line (no SERT). Each data point represents binding to the equivalent of 50,000 cells measured in duplicate (estimated error is ±20% in dpm). […] (FIG. 3C) Amino acid sequence of SERT (SEQ ID NO: 1) showing the positions of the thermostabilising mutations (hatched) that consistently gave >1° C. increase in Tm compared to wild-type SERT; residues in bold and hatched were used to stabilize either SAH6 and/or SAH7. N-linked glycosylation sites are indicated by the hexagons, a putative disulphide bond is shown as a grey line and the N-terminal and C-terminal fusion partners are shown (c-Myc tag and the fluorescent reporter protein mCherry) are indicated.

For series [2], the system named is T-REx-293 cells. Kind of series: Cell surface expression by confocal microscopy. In kind it is cell-based. On the set-up: key: *: low expression; **: as wild-type SERT; ***: higher expression than wild-type SERT. The settings on record: estimation by eye of fluorescence upon confocal microscopy.

B1: L99A: rat SERT single mutant L99A (protein)
chain: METTPLNSQKVLSECKDREDCQENGVLQKGVPTTADRAEPSQISNGYSAVPSTSAGDEASHSIPAATTTLVAEIRQGERETWGKKMDFLLSVIGYAVDAGNIWRFPYICYQNGGGAFLLPYTIMAIFGGIPLFYMELALGQYHRNGCISIWRKICPIFKGIGYAICIIAFYIASYYNTIIAWALYYLISSLTDRLPWTSCTNSWNTGNCTNYFAQDNITWTLHSTSPAEEFYLRHVLQIHQSKGLQDLGTISWQLTLCIVLIFTVIYFSIWKGVKTSGKVVWVTATFPYIVLSVLLVRGATLPGAWRGVVFYLKPNWQKLLETGVWVDAAAQIFFSLGPGFGVLLAFASYNKFNNNCYQDALVTSVVNCMTSFVSGFVIFTVLGYMAEMRNEDVSEVAKDAGPSLLFITYAEAIANMPASTFFAIIFFLMLITLGLDSTFAGLEGVITAVLDEFPHIWAKRREWFVLIVVITCVLGSLLTLTSGGAYVVTLLEEYATGPAVLTVALIEAVAVSWFYGITQFCSDVKEMLGFSPGWFWRICWVAISPLFLLFIICSFLMSPPQLRLFQYNYPHWSIVLGYCIGMSSVICIPTYIIYRLISTPGTLKERIIKSITPETPTEIPCGDIRMNAV
With B1, the “Expression (%) SERT = 100%” value with T-REx-293 cells [1] amounted to 131%. The Cell surface expression entry with T-REx-293 cells [2] is listed as “**”.

B2: F311A: rat SERT single mutant F311A (protein)
chain: METTPLNSQKVLSECKDREDCQENGVLQKGVPTTADRAEPSQISNGYSAVPSTSAGDEASHSIPAATTTLVAEIRQGERETWGKKMDFLLSVIGYAVDLGNIWRFPYICYQNGGGAFLLPYTIMAIFGGIPLFYMELALGQYHRNGCISIWRKICPIFKGIGYAICIIAFYIASYYNTIIAWALYYLISSLTDRLPWTSCTNSWNTGNCTNYFAQDNITWTLHSTSPAEEFYLRHVLQIHQSKGLQDLGTISWQLTLCIVLIFTVIYFSIWKGVKTSGKVVWVTATFPYIVLSVLLVRGATLPGAWRGVVAYLKPNWQKLLETGVWVDAAAQIFFSLGPGFGVLLAFASYNKFNNNCYQDALVTSVVNCMTSFVSGFVIFTVLGYMAEMRNEDVSEVAKDAGPSLLFITYAEAIANMPASTFFAIIFFLMLITLGLDSTFAGLEGVITAVLDEFPHIWAKRREWFVLIVVITCVLGSLLTLTSGGAYVVTLLEEYATGPAVLTVALIEAVAVSWFYGITQFCSDVKEMLGFSPGWFWRICWVAISPLFLLFIICSFLMSPPQLRLFQYNYPHWSIVLGYCIGMSSVICIPTYIIYRLISTPGTLKERIIKSITPETPTEIPCGDIRMNAV
For B2, in the series on T-REx-293 cells [1], the “Expression (%) SERT = 100%” value turned out to be 492%. Moreover, in the series with T-REx-293 cells [2], the Cell surface expression entry is “**”.

B3: G278A: rat SERT single mutant G278A (protein)
chain: METTPLNSQKVLSECKDREDCQENGVLQKGVPTTADRAEPSQISNGYSAVPSTSAGDEASHSIPAATTTLVAEIRQGERETWGKKMDFLLSVIGYAVDLGNIWRFPYICYQNGGGAFLLPYTIMAIFGGIPLFYMELALGQYHRNGCISIWRKICPIFKGIGYAICIIAFYIASYYNTIIAWALYYLISSLTDRLPWTSCTNSWNTGNCTNYFAQDNITWTLHSTSPAEEFYLRHVLQIHQSKGLQDLGTISWQLTLCIVLIFTVIYFSIWKGVKTSAKVVWVTATFPYIVLSVLLVRGATLPGAWRGVVFYLKPNWQKLLETGVWVDAAAQIFFSLGPGFGVLLAFASYNKFNNNCYQDALVTSVVNCMTSFVSGFVIFTVLGYMAEMRNEDVSEVAKDAGPSLLFITYAEAIANMPASTFFAIIFFLMLITLGLDSTFAGLEGVITAVLDEFPHIWAKRREWFVLIVVITCVLGSLLTLTSGGAYVVTLLEEYATGPAVLTVALIEAVAVSWFYGITQFCSDVKEMLGFSPGWFWRICWVAISPLFLLFIICSFLMSPPQLRLFQYNYPHWSIVLGYCIGMSSVICIPTYIIYRLISTPGTLKERIIKSITPETPTEIPCGDIRMNAV
For B3, the “Expression (%) SERT = 100%” value with T-REx-293 cells [1] is 39%. The Cell surface expression result in the series with T-REx-293 cells [2] is “*”.

B4: L405A: rat SERT single mutant L405A (protein)
chain: METTPLNSQKVLSECKDREDCQENGVLQKGVPTTADRAEPSQISNGYSAVPSTSAGDEASHSIPAATTTLVAEIRQGERETWGKKMDFLLSVIGYAVDLGNIWRFPYICYQNGGGAFLLPYTIMAIFGGIPLFYMELALGQYHRNGCISIWRKICPIFKGIGYAICIIAFYIASYYNTIIAWALYYLISSLTDRLPWTSCTNSWNTGNCTNYFAQDNITWTLHSTSPAEEFYLRHVLQIHQSKGLQDLGTISWQLTLCIVLIFTVIYFSIWKGVKTSGKVVWVTATFPYIVLSVLLVRGATLPGAWRGVVFYLKPNWQKLLETGVWVDAAAQIFFSLGPGFGVLLAFASYNKFNNNCYQDALVTSVVNCMTSFVSGFVIFTVLGYMAEMRNEDVSEVAKDAGPSALFITYAEAIANMPASTFFAIIFFLMLITLGLDSTFAGLEGVITAVLDEFPHIWAKRREWFVLIVVITCVLGSLLTLTSGGAYVVTLLEEYATGPAVLTVALIEAVAVSWFYGITQFCSDVKEMLGFSPGWFWRICWVAISPLFLLFIICSFLMSPPQLRLFQYNYPHWSIVLGYCIGMSSVICIPTYIIYRLISTPGTLKERIIKSITPETPTEIPCGDIRMNAV
With B4, in the series with T-REx-293 cells [1], the “Expression (%) SERT = 100%” value is 543%. Moreover, in the series with T-REx-293 cells [2], the Cell surface expression result was “***”.

B5: G115A: rat SERT single mutant G115A (protein)
chain: METTPLNSQKVLSECKDREDCQENGVLQKGVPTTADRAEPSQISNGYSAVPSTSAGDEASHSIPAATTTLVAEIRQGERETWGKKMDFLLSVIGYAVDLGNIWRFPYICYQNGGAAFLLPYTIMAIFGGIPLFYMELALGQYHRNGCISIWRKICPIFKGIGYAICIIAFYIASYYNTIIAWALYYLISSLTDRLPWTSCTNSWNTGNCTNYFAQDNITWTLHSTSPAEEFYLRHVLQIHQSKGLQDLGTISWQLTLCIVLIFTVIYFSIWKGVKTSGKVVWVTATFPYIVLSVLLVRGATLPGAWRGVVFYLKPNWQKLLETGVWVDAAAQIFFSLGPGFGVLLAFASYNKFNNNCYQDALVTSVVNCMTSFVSGFVIFTVLGYMAEMRNEDVSEVAKDAGPSLLFITYAEAIANMPASTFFAIIFFLMLITLGLDSTFAGLEGVITAVLDEFPHIWAKRREWFVLIVVITCVLGSLLTLTSGGAYVVTLLEEYATGPAVLTVALIEAVAVSWFYGITQFCSDVKEMLGFSPGWFWRICWVAISPLFLLFIICSFLMSPPQLRLFQYNYPHWSIVLGYCIGMSSVICIPTYIIYRLISTPGTLKERIIKSITPETPTEIPCGDIRMNAV
For the molecule B5, the “Expression (%) SERT = 100%” value in the series on T-REx-293 cells [1] is given as 327%. The Cell surface expression result in the series with T-REx-293 cells [2] was “***”.

B6: L406A: rat SERT single mutant L406A (protein)
chain: METTPLNSQKVLSECKDREDCQENGVLQKGVPTTADRAEPSQISNGYSAVPSTSAGDEASHSIPAATTTLVAEIRQGERETWGKKMDFLLSVIGYAVDLGNIWRFPYICYQNGGGAFLLPYTIMAIFGGIPLFYMELALGQYHRNGCISIWRKICPIFKGIGYAICIIAFYIASYYNTIIAWALYYLISSLTDRLPWTSCTNSWNTGNCTNYFAQDNITWTLHSTSPAEEFYLRHVLQIHQSKGLQDLGTISWQLTLCIVLIFTVIYFSIWKGVKTSGKVVWVTATFPYIVLSVLLVRGATLPGAWRGVVFYLKPNWQKLLETGVWVDAAAQIFFSLGPGFGVLLAFASYNKFNNNCYQDALVTSVVNCMTSFVSGFVIFTVLGYMAEMRNEDVSEVAKDAGPSLAFITYAEAIANMPASTFFAIIFFLMLITLGLDSTFAGLEGVITAVLDEFPHIWAKRREWFVLIVVITCVLGSLLTLTSGGAYVVTLLEEYATGPAVLTVALIEAVAVSWFYGITQFCSDVKEMLGFSPGWFWRICWVAISPLFLLFIICSFLMSPPQLRLFQYNYPHWSIVLGYCIGMSSVICIPTYIIYRLISTPGTLKERIIKSITPETPTEIPCGDIRMNAV
On to B6, for which, in the series on T-REx-293 cells [1], the “Expression (%) SERT = 100%” value turned out to be 87%. Moreover, the Cell surface expression result with T-REx-293 cells [2] was “*”.

B7: A169L: rat SERT single mutant A169L (protein)
chain: METTPLNSQKVLSECKDREDCQENGVLQKGVPTTADRAEPSQISNGYSAVPSTSAGDEASHSIPAATTTLVAEIRQGERETWGKKMDFLLSVIGYAVDLGNIWRFPYICYQNGGGAFLLPYTIMAIFGGIPLFYMELALGQYHRNGCISIWRKICPIFKGIGYAICIILFYIASYYNTIIAWALYYLISSLTDRLPWTSCTNSWNTGNCTNYFAQDNITWTLHSTSPAEEFYLRHVLQIHQSKGLQDLGTISWQLTLCIVLIFTVIYFSIWKGVKTSGKVVWVTATFPYIVLSVLLVRGATLPGAWRGVVFYLKPNWQKLLETGVWVDAAAQIFFSLGPGFGVLLAFASYNKFNNNCYQDALVTSVVNCMTSFVSGFVIFTVLGYMAEMRNEDVSEVAKDAGPSLLFITYAEAIANMPASTFFAIIFFLMLITLGLDSTFAGLEGVITAVLDEFPHIWAKRREWFVLIVVITCVLGSLLTLTSGGAYVVTLLEEYATGPAVLTVALIEAVAVSWFYGITQFCSDVKEMLGFSPGWFWRICWVAISPLFLLFIICSFLMSPPQLRLFQYNYPHWSIVLGYCIGMSSVICIPTYIIYRLISTPGTLKERIIKSITPETPTEIPCGDIRMNAV
With B7, the “Expression (%) SERT = 100%” value in the series on T-REx-293 cells [1] came to 31%. Moreover, in the series with T-REx-293 cells [2], the Cell surface expression result is on record as “**”.
